According to PMC3507621, “Implication of the oligomeric state of the N-terminal PTX3 domain in cumulus matrix assembly” (Matrix Biology, 2011):
“And” between values parts separate entries of the source, which are not always exact repeats. Identical values can stand only once.

B1: mouse TSG-6 (tumor necrosis factor-induced protein 6) (natural protein, UniProt O08859 18-275, looked up)
chain: WGFKNGIFHNSIWLEQAAGVYHREARAGRYKLTYAEAKAVCEFEGGRLATYKQLEAARKIGFHVCAAGWMAKGRVGYPIVKPGPNCGFGKTGIIDYGIRLNRSERWDAYCYNPHAKECGGVFTDPKRIFKSPGFPNEYDDNQVCYWHIRLKYGQRIHLSFLDFDLEHDPGCLADYVEIYDSYDDVHGFVGRYCGDELPEDIISTGNVMTLKFLSDASVTAGGFQIKYVTVDPASKSSQAKNTSTTGNKKFLPGRFSHL
notes: TSG-6 (tumor necrosis factor-induced protein 6), mouse; source: bought: R&D

Assays:
[1] = biological target: T1, biotinylated recombinant full length PTX3 (human, UniProt P26022 18-381, biotin); test: ELISA; competition: wells coated with 500 ng of IαI or TSG-6; 50 ng/well biotinylated PTX3 with or without unlabeled N_PTX3 or triple mutant, 1 h at 37 °C; HRP-streptavidin; details: both partners purified
T1 construct: Pentraxin 3 (PTX3), human recombinant wild type, full length; As a secreted protein it probably lacks the signal peptide (residues 1-17; surmise); also called bPTX3; biotinylated PTX3

[2] = biological target: the molecule itself; test: SEC + native gel or EMSA; Superose 6 in 20 mM sodium phosphate, 150 mM NaCl, pH 7.4; native 4-20% polyacrylamide gel without SDS; oligomeric state of purified N_PTX3 proteins
[3] = biological target: B1; test: ELISA; N_PTX3 proteins coated on wells (10 μg/ml); IαI or TSG-6 added in PBS with Ca2+ and Mg2+, 0.05% Tween-20, 1% BSA, pH 7.4, 2 h at 37 °C; detected with polyclonal anti-IαI or anti-TSG-6; details: both partners purified

B1
binding result [1]: binds

B2: wild type recombinant N-terminal region of PTX3 (N_PTX3) (domain or fragment, human)
chain: ENSDDYDLMYVNLDNEIDNGLHPTEDPTPCACGQEHSEWDKLFIMLENSQMRERMLLQATDDVLRGELQRLREELGRLAESLARPCAPGAPAEARLTSALDELLQATRDAGRRLARMEGAEAQRPEEAGRALAAVLEELRQTRADLHAVQGWATG
notes: Pentraxin 3 (PTX3), human, residues 18-170 of the PTX3 preprotein; two non-authentic amino acids (Thr-Gly) before the C-terminal His tag; Organised into tetramers by SEC and native gel; The 5' primer begins at the ATG of the preprotein, so the signal peptide was probably encoded and cut off on secretion (surmise); also called WT; source: HEK-293 F, stably transfected, purified from culture …
stoichiometry N [2]: 4
binding result [3]: binds

B3: N_PTX3C103S (domain or fragment, human)
chain: ENSDDYDLMYVNLDNEIDNGLHPTEDPTPCACGQEHSEWDKLFIMLENSQMRERMLLQATDDVLRGELQRLREELGRLAESLARPSAPGAPAEARLTSALDELLQATRDAGRRLARMEGAEAQRPEEAGRALAAVLEELRQTRADLHAVQGWATG
notes: Pentraxin 3 (PTX3), human, residues 18-170 of the PTX3 preprotein, with C103S; two non-authentic amino acids (Thr-Gly) before the C-terminal His tag; Mixture of tetramers and dimers, more tetramers than dimers; also called single mutant; source: HEK-293 F, stably transfected, purified from culture supernatant (HisTrap, desalting)
stoichiometry N [2]: 4 and 2
binding result [3]: binds

B4: N_PTX3C47S/C49S (domain or fragment, human)
chain: ENSDDYDLMYVNLDNEIDNGLHPTEDPTPSASGQEHSEWDKLFIMLENSQMRERMLLQATDDVLRGELQRLREELGRLAESLARPCAPGAPAEARLTSALDELLQATRDAGRRLARMEGAEAQRPEEAGRALAAVLEELRQTRADLHAVQGWATG
notes: Pentraxin 3 (PTX3), human, residues 18-170 of the PTX3 preprotein, with C47S and C49S; two non-authentic amino acids (Thr-Gly) before the C-terminal His tag; Mixture of tetramers and dimers, more dimers than tetramers; also called double mutant; C47/C49; source: HEK-293 F, stably transfected, purified from culture supernatant (HisTrap, desalting)
stoichiometry N [2]: 4 and 2
binding result [3]: binds

B5: N_PTX3C47S/C49S/C103S (domain or fragment, human)
chain: ENSDDYDLMYVNLDNEIDNGLHPTEDPTPSASGQEHSEWDKLFIMLENSQMRERMLLQATDDVLRGELQRLREELGRLAESLARPSAPGAPAEARLTSALDELLQATRDAGRRLARMEGAEAQRPEEAGRALAAVLEELRQTRADLHAVQGWATG
notes: Pentraxin 3 (PTX3), human, residues 18-170 of the PTX3 preprotein, with C47S, C49S and C103S; two non-authentic amino acids (Thr-Gly) before the C-terminal His tag; Composed entirely of non-covalent dimers; also called triple mutant; C47/C49/C103; source: HEK-293 F, stably transfected, purified from culture supernatant (HisTrap, desalting)
stoichiometry N [2]: 2
binding result [3]: binds
